According to the supplement of paper PMC11208486:
± gives the uncertainty stated by the source.

Assays:
[1] = specific initial activity, cyclohex-2-enone reduction (U mg-1); higher = more active
Protocol: (§1)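 Purified His-tagged ene reductases in 50 mM sodium phosphate pH 7.4 with 0-30% (v/v) organic co-solvent. Melting temperature was measured by the ThermoFMN assay (FMN fluorescence, 20-90 °C at 1 °C/min, inflection point, triplicate). Specific initial activity was measured with 10 mM cyclohex-2-enone and 0.2 mM NAD(P)H (NADH for LacER) as A340 depletion, at room temperature (DMSO, 2-propanol, n-propanol) or 25 °C (EtOH, MeOH), in triplicate. The TsOYE Tm is above the 90 °C measurement range.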

[2] = melting temperature (ThermoFMN); higher = more thermostable
Protocol: as §1, with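 “reductases (1 mg/ml)” for “reductases”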

MARKLFTPITIKDMTLKNRIVMSPMCMYSSHEKDGKLTPFHMAHYISRAIGQVGLIIVEASAVNPQGRITDQDLGIWSDEHIEGFAKLTEQVKEQGSKIGIQLAHAGRKAELEGDIFAPSAIAFDEQSATPVEMSAEKVKETVQEFKQAAARAKEAGFDVIEIHAAHGYLIHEFLSPLSNHRTDEYGGSPENRYRFLREIIDEVKQVWDGPLFVRVSASDYTDKGLDIADHIGFAKWMKEQGVDLIDCSSGALVHADINVFPGYQVSFAEKIREQADMATGAVGMITDGSMAEEILQNGRADLIFIGRELLRDPFFARTAAKQLNTEIPAPVQYERGW
Details	melting temperature, co-solvent: 2-propanol [°C]	melting temperature, co-solvent: dimethyl sulfoxide [°C]	melting temperature, co-solvent: ethanol [°C]	melting temperature, co-solvent: methanol [°C]	melting temperature, co-solvent: n-propanol [°C]	specific initial activity, co-solvent: 2-propanol	specific initial activity, co-solvent: dimethyl sulfoxide	specific initial activity, co-solvent: ethanol	specific initial activity, co-solvent: methanol	specific initial activity, co-solvent: n-propanol
[1], co-solvent concentration (% v/v): 0	–	–	–	–	–	0.49 ± 0.07	0.52 ± 0.07	0.46 ± 0.03	0.51 ± 0.12	0.5 ± 0.12
[1], co-solvent concentration (% v/v): 5	–	–	–	–	–	0.34 ± 0.03	0.4 ± 0.01	0.33 ± 0.01	0.39 ± 0.01	0.25 ± 0.02
[1], co-solvent concentration (% v/v): 10	–	–	–	–	–	0.21 ± 0.01	0.33 ± 0.01	0.21 ± 0.03	0.3 ± 0.01	0.17 ± 0.01
[1], co-solvent concentration (% v/v): 15	–	–	–	–	–	0.16 ± 0.05	0.25 ± 0.01	0.07 ± 0.02	0.13 ± 0.02	0.12 ± 0.01
[1], co-solvent concentration (% v/v): 20	–	–	–	–	–	0.11 ± 0.07	0.17 ± 0.02	0.03 ± 0.01	0.12 ± 0.09	0.05 ± 0.03
[1], co-solvent concentration (% v/v): 25	–	–	–	–	–	0.14 ± 0.03	0.1 ± 0.01	0.03 ± 0.01	0.07 ± 0.05	0 ± 0.03
[1], co-solvent concentration (% v/v): 30	–	–	–	–	–	0.06 ± 0.09	0.05 ± 0.05	0.02 ± 0.01	0.05 ± 0.03	0 ± 0.08
[2], co-solvent concentration (% v/v): 0	50.7 ± 0.58	51	51	51	51	–	–	–	–	–
[2], co-solvent concentration (% v/v): 5	40 ± 1	49.3 ± 0.58	45 ± 1.7	48.3 ± 0.58	43.3 ± 1.1	–	–	–	–	–
[2], co-solvent concentration (% v/v): 10	36.3 ± 0.58	48	42.3 ± 0.58	43.3 ± 1.5	35.3 ± 0.58	–	–	–	–	–
[2], co-solvent concentration (% v/v): 15	34 ± 1	46.7 ± 0.58	38.3 ± 0.58	40 ± 1.7	29.7 ± 0.58	–	–	–	–	–
[2], co-solvent concentration (% v/v): 20	31.3 ± 0.58	46	35 ± 1.7	39.3 ± 1.1	28.3 ± 0.58	–	–	–	–	–
[2], co-solvent concentration (% v/v): 25	27.3 ± 0.58	45	33 ± 1	36.7 ± 0.58	27.7 ± 0.58	–	–	–	–	–
[2], co-solvent concentration (% v/v): 30	24.3 ± 3.8	44	31	33 ± 1	26.7 ± 0.58	–	–	–	–	–
